# Results from the supplement of paper PMC6755084.
# Test system: F1*sub RNA substrate (template-directed ligation)
# Test: fraction ligated after 30 min (ligated reads / total reads); higher = more ligase activity; sequences stand for … in GAGACCGCAACTGAAAAGTTGT…AGTTCTGCACGTAGAAGCAAAAGGC
# Details: 42 °C
# In short: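 Oligo-pool templates of ligase ribozyme variants were PCR-amplified, T7-transcribed and gel-purified. Ligated and unligated bands were gel-separated, reverse transcribed with barcoded primers, and MiSeq-sequenced; core bases were filtered at quality ≥20. Fraction ligated per variant was ligated reads over total reads.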
row,Sequence,fraction ligated
1,TATCATGTCGTAAGACACTTTGGTGGGTTGA [3d1135],0.523
2,TATCATGTCGTAAGACATTTGGATGGGTTGA [3d1132],0.801
3,TATCATGTCGTAAGACCTTTGGATGGGTTGA [3d1131],0.778
4,TATCATGTCGTAAGCACTTTGGATGGGTTGA [3d1129],0.761
5,TATCATGTCGTAGACACTTTGGATGGGTTGA [3d1127],0.817
6,TATCATGTCTAAGACACTTTGGATGGGTTGA [3d1125],0.759
7,TATCATGTGTAAGACACTTTGGATGGGTTGA [3d1124],0.84
8,TATCATTCGTAAGACACTTTGGATGGGTTGA [3d1122],0.776
9,TATCATTGCGAAGACACTTTGGATGGGTTGA [3d1158],0.8
10,TATCATTGCGTAAACACTTTGGATGGGTTGA [3d1160],0.814
11,TATCATTGCGTAAGAACTTTGGATGGGTTGA [3d1162],0.837
12,TATCATTGCGTAAGACACTTGGATGGGTTGA [3d1165],0.773
13,TATCATTGCGTAAGACACTTTGATGGGTTGA [3d1166],0.681
14,TATCATTGCGTAAGACACTTTGGAGGGTTGA [3d1168],0.0323
15,TATCATTGCGTAAGACACTTTGGATGGGTTA [3d1170],0.447
16,TATCATTGCGTAAGACACTTTGGATGGGTTG [3d1171],0.815
17,TATCATTGCGTAAGACACTTTGGATGGGTTGA [2d111],0.819
18,TATCATTGCGTAAGACACTTTGGATGGTTGA [3d1169],0.0894
19,TATCATTGCGTAAGACACTTTGGTGGGTTGA [3d1167],0.0667
20,TATCATTGCGTAAGACATTTGGATGGGTTGA [3d1164],0.802
21,TATCATTGCGTAAGACCTTTGGATGGGTTGA [3d1163],0.815
22,TATCATTGCGTAAGCACTTTGGATGGGTTGA [3d1161],0.799
23,TATCATTGCGTAGACACTTTGGATGGGTTGA [3d1159],0.823

row,Sequence,fraction ligated
1,TATCATTGCTAAGACACTTTGGATGGGTTGA [3d1157],0.784
2,TATCATTGGTAAGACACTTTGGATGGGTTGA [3d1156],0.809
3,TATCATTGTCAAGACACTTTGGATGGGTTGA [3d1187],0.783
4,TATCATTGTCGAAACACTTTGGATGGGTTGA [3d1202],0.81
5,TATCATTGTCGAAGAACTTTGGATGGGTTGA [3d1204],0.809
6,TATCATTGTCGAAGACACTTGGATGGGTTGA [3d1207],0.771
7,TATCATTGTCGAAGACACTTTGATGGGTTGA [3d1208],0.772
8,TATCATTGTCGAAGACACTTTGGAGGGTTGA [3d1210],0.0625
9,TATCATTGTCGAAGACACTTTGGATGGGTTA [3d1212],0.475
10,TATCATTGTCGAAGACACTTTGGATGGGTTG [3d1213],0.796
11,TATCATTGTCGAAGACACTTTGGATGGGTTGA [2d114],0.798
12,TATCATTGTCGAAGACACTTTGGATGGTTGA [3d1211],0.21
13,TATCATTGTCGAAGACACTTTGGTGGGTTGA [3d1209],0.229
14,TATCATTGTCGAAGACATTTGGATGGGTTGA [3d1206],0.794
15,TATCATTGTCGAAGACCTTTGGATGGGTTGA [3d1205],0.768
16,TATCATTGTCGAAGCACTTTGGATGGGTTGA [3d1203],0.784
17,TATCATTGTCGAGACACTTTGGATGGGTTGA [3d1201],0.783
18,TATCATTGTCGTAAAACTTTGGATGGGTTGA [3d1227],0.787
19,TATCATTGTCGTAAACACTTGGATGGGTTGA [3d1230],0.778
20,TATCATTGTCGTAAACACTTTGATGGGTTGA [3d1231],0.597
21,TATCATTGTCGTAAACACTTTGGAGGGTTGA [3d1233],0.0387
22,TATCATTGTCGTAAACACTTTGGATGGGTTA [3d1235],0.472
23,TATCATTGTCGTAAACACTTTGGATGGGTTG [3d1236],0.809

row,Sequence,fraction ligated
1,TATCATTGTCGTAAACACTTTGGATGGTTGA [3d1234],0.0592
2,TATCATTGTCGTAAACACTTTGGTGGGTTGA [3d1232],0.0641
3,TATCATTGTCGTAAACATTTGGATGGGTTGA [3d1229],0.798
4,TATCATTGTCGTAAACCTTTGGATGGGTTGA [3d1228],0.79
5,TATCATTGTCGTAACACTTTGGATGGGTTGA [3d1215],0.815
6,TATCATTGTCGTAAGAACTTGGATGGGTTGA [3d1248],0.831
7,TATCATTGTCGTAAGAACTTTGATGGGTTGA [3d1249],0.545
8,TATCATTGTCGTAAGAACTTTGGAGGGTTGA [3d1251],0.0299
9,TATCATTGTCGTAAGAACTTTGGATGGGTTA [3d1253],0.623
10,TATCATTGTCGTAAGAACTTTGGATGGGTTG [3d1254],0.815
11,TATCATTGTCGTAAGAACTTTGGATGGTTGA [3d1252],0.0537
12,TATCATTGTCGTAAGAACTTTGGTGGGTTGA [3d1250],0.0672
13,TATCATTGTCGTAAGAATTTGGATGGGTTGA [3d1247],0.796
14,TATCATTGTCGTAAGACACTGGATGGGTTGA [3d1269],0.783
15,TATCATTGTCGTAAGACACTTGATGGGTTGA [3d1270],0.779
16,TATCATTGTCGTAAGACACTTGGAGGGTTGA [3d1272],0.183
17,TATCATTGTCGTAAGACACTTGGATGGGTTA [3d1274],0.728
18,TATCATTGTCGTAAGACACTTGGATGGGTTG [3d1275],0.8
19,TATCATTGTCGTAAGACACTTGGATGGTTGA [3d1273],0.395
20,TATCATTGTCGTAAGACACTTGGTGGGTTGA [3d1271],0.482
21,TATCATTGTCGTAAGACACTTTATGGGTTGA [3d1276],0.0281
22,TATCATTGTCGTAAGACACTTTGAGGGTTGA [3d1278],0.00985
23,TATCATTGTCGTAAGACACTTTGATGGGTTA [3d1280],0.158

row,Sequence,fraction ligated
1,TATCATTGTCGTAAGACACTTTGATGGGTTG [3d1281],0.765
2,TATCATTGTCGTAAGACACTTTGATGGTTGA [3d1279],0.027
3,TATCATTGTCGTAAGACACTTTGGAGGGTTA [3d1287],0.0162
4,TATCATTGTCGTAAGACACTTTGGAGGGTTG [3d1288],0.0338
5,TATCATTGTCGTAAGACACTTTGGAGGTTGA [3d1286],0.0106
6,TATCATTGTCGTAAGACACTTTGGATGGGTT [3d1291],0.0919
7,TATCATTGTCGTAAGACACTTTGGATGGGTTA [2d126],0.67
8,TATCATTGTCGTAAGACACTTTGGATGGGTTG [2d127],0.784
9,TATCATTGTCGTAAGACACTTTGGATGGGTTGA [1d6],0.796
10,TATCATTGTCGTAAGACACTTTGGATGGTTA [3d1289],0.203
11,TATCATTGTCGTAAGACACTTTGGATGGTTG [3d1290],0.299
12,TATCATTGTCGTAAGACACTTTGGATGGTTGA [2d125],0.456
13,TATCATTGTCGTAAGACACTTTGGGGGTTGA [3d1282],0.0386
14,TATCATTGTCGTAAGACACTTTGGTGGGTTA [3d1284],0.0335
15,TATCATTGTCGTAAGACACTTTGGTGGGTTG [3d1285],0.247
16,TATCATTGTCGTAAGACACTTTGGTGGTTGA [3d1283],0.0252
17,TATCATTGTCGTAAGACACTTTGTGGGTTGA [3d1277],0.0371
18,TATCATTGTCGTAAGACATTGGATGGGTTGA [3d1262],0.801
19,TATCATTGTCGTAAGACATTTGATGGGTTGA [3d1263],0.787
20,TATCATTGTCGTAAGACATTTGGAGGGTTGA [3d1265],0.23
21,TATCATTGTCGTAAGACATTTGGATGGGTTA [3d1267],0.659
22,TATCATTGTCGTAAGACATTTGGATGGGTTG [3d1268],0.766
23,TATCATTGTCGTAAGACATTTGGATGGTTGA [3d1266],0.567

row,Sequence,fraction ligated
1,TATCATTGTCGTAAGACATTTGGTGGGTTGA [3d1264],0.421
2,TATCATTGTCGTAAGACCTTGGATGGGTTGA [3d1255],0.804
3,TATCATTGTCGTAAGACCTTTGATGGGTTGA [3d1256],0.778
4,TATCATTGTCGTAAGACCTTTGGAGGGTTGA [3d1258],0.104
5,TATCATTGTCGTAAGACCTTTGGATGGGTTA [3d1260],0.697
6,TATCATTGTCGTAAGACCTTTGGATGGGTTG [3d1261],0.778
7,TATCATTGTCGTAAGACCTTTGGATGGTTGA [3d1259],0.493
8,TATCATTGTCGTAAGACCTTTGGTGGGTTGA [3d1257],0.426
9,TATCATTGTCGTAAGACTTTGGATGGGTTGA [3d1237],0.802
10,TATCATTGTCGTAAGCACTTGGATGGGTTGA [3d1240],0.771
11,TATCATTGTCGTAAGCACTTTGATGGGTTGA [3d1241],0.58
12,TATCATTGTCGTAAGCACTTTGGAGGGTTGA [3d1243],0.0203
13,TATCATTGTCGTAAGCACTTTGGATGGGTTA [3d1245],0.474
14,TATCATTGTCGTAAGCACTTTGGATGGGTTG [3d1246],0.767
15,TATCATTGTCGTAAGCACTTTGGATGGTTGA [3d1244],0.0553
16,TATCATTGTCGTAAGCACTTTGGTGGGTTGA [3d1242],0.0707
17,TATCATTGTCGTAAGCATTTGGATGGGTTGA [3d1239],0.796
18,TATCATTGTCGTAAGCCTTTGGATGGGTTGA [3d1238],0.798
19,TATCATTGTCGTAGAACTTTGGATGGGTTGA [3d1217],0.864
